The values that follow come from FireProtDB (doi:10.1002/pro.5560070228).

“And” between values parts separate entries of the source, which are not always exact repeats. Equal entries are not always repeated.

The conditions of this series: Escherichia coli (strain K12), pH 7, Potassium phosphate 50 mM, KCl 100 mM, reversible: yes.

Cold shock protein CspA wild type, P0A9X9, sequence (P0A9X9 whole entry): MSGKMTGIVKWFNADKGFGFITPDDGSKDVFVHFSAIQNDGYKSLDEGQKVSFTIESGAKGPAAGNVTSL

As for “Cold shock protein CspA wild type, P0A9X9”, the denaturant m value was 1.7 kcal/mol/M and 2.4 kcal/mol/M and 2.1 kcal/mol/M (10 °C, GdnHCl, Fluorescence); 0.59 kcal/mol/M and 0.66 kcal/mol/M and 0.64 kcal/mol/M (10 °C, Urea, Fluorescence); 1.7 kcal/mol/M and 2.9 kcal/mol/M and 2.1 kcal/mol/M (25 °C, GdnHCl, CD); 2.2 kcal/mol/M and 2 kcal/mol/M (25 °C, GdnHCl, Fluorescence); 0.6 kcal/mol/M and 0.7 kcal/mol/M (25 °C, Urea, CD); 0.71 kcal/mol/M and 0.69 kcal/mol/M and 0.78 kcal/mol/M (25 °C, Urea, Fluorescence). Further, the “denaturant midpoint (higher = more stable)” value by setting is: (10 °C, GdnHCl, Fluorescence) 1.8 M and 1.6 M; (10 °C, Urea, Fluorescence) 4.9 M and 5 M and 4.5 M; (25 °C, GdnHCl, CD) 1.5 M and 1.3 M and 1.6 M; (25 °C, GdnHCl, Fluorescence) 1.4 M and 1.6 M; (25 °C, Urea, CD) 4 M and 4.5 M and 4.1 M; (25 °C, Urea, Fluorescence) 4.2 M. The unfolding free energy reads like this: (10 °C, GdnHCl, Fluorescence) 3.1 kcal/mol and 3.8 kcal/mol and 3.3 kcal/mol; (10 °C, Urea, Fluorescence) 2.9 kcal/mol and 3.3 kcal/mol and 2.8 kcal/mol; (25 °C, GdnHCl, CD) 2.4 kcal/mol and 3.7 kcal/mol and 3.3 kcal/mol; (25 °C, GdnHCl, Fluorescence) 3.1 kcal/mol and 3.2 kcal/mol and 3 kcal/mol; (25 °C, Urea, CD) 2.6 kcal/mol and 3.1 kcal/mol; (25 °C, Urea, Fluorescence) 3 kcal/mol and 2.9 kcal/mol and 3.2 kcal/mol.
